Measurements published in the supplement of paper PMC10065799, “High-throughput profiling of sequence recognition by tyrosine kinases and SH2 domains using bacterial peptide display” (eLife, 2023).
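Also: 11-residue human phosphosite peptides and single-mutation variants displayed on the E. coli surface, counted by deep sequencing, each peptide's frequency after selection divided by its frequency in the unselected input library; frequency after pTyr selection over input frequency; kinase dosed for 20-30% of maximal phosphorylation in three min.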

Each sequence was assayed on AncSZ (assay: phosphorylation enrichment, bacterial display (enrichment ratio); higher = better substrate or ligand; peptides without Tyr show the background).
Work on RQGQAYRGQRV [TSHR_Y706_A703G] yielded a phosphorylation enrichment of 0.718.
For YCRIMYDIFPF [INTS13_Y67], the phosphorylation enrichment was 1.85.
Work on AFSLKYEQQTQ [SYTL4_Y366] yielded a phosphorylation enrichment of 1.03.
AHARMYGVLPW [PLP1_Y207_D203H] gave a phosphorylation enrichment of 0.496.
FGCGMYSHLQG [LGR4_Y848_D844G_YF] showed a phosphorylation enrichment of 1.1.
With ENELTYYCYKK [CD59_Y86_C89Y] the phosphorylation enrichment was 1.92.
Sequence KSPGEYVNIEF [IRS1_Y896] has a phosphorylation enrichment of 0.906.
LLAGLYRGQAL [FGFR4_Y390] showed a phosphorylation enrichment of 0.857.
With FGRTFYNQAIM [MCCC2_Y196] the phosphorylation enrichment was 1.08.
Work on RSRSPYSPVFR [CDK13_Y399_L403F] yielded a phosphorylation enrichment of 0.812.
LLSVAYKNVVG [YWHAG_Y49] was tested, and the phosphorylation enrichment was 1.02.
RHFTGYRIELQ [INSR_Y818] showed a phosphorylation enrichment of 1.01.
Work on RKNAKYLLKGE [CDH5_Y82] yielded a phosphorylation enrichment of 0.779.
IMITDYLPLFR [INSR_Y87_L89P] gave a phosphorylation enrichment of 1.09.
TLSGIYQYNIA [FOXL2_Y81_I84N] gave a phosphorylation enrichment of 1.32.
In the case of PTTKTYFPHFD [HBA1_Y43], the phosphorylation enrichment is reported as 0.66.

The sequences below were run against EPHB1 (UniProt P54762) in the same assay as above.
Sequence of EPHB1 (P54762 whole entry, looked up): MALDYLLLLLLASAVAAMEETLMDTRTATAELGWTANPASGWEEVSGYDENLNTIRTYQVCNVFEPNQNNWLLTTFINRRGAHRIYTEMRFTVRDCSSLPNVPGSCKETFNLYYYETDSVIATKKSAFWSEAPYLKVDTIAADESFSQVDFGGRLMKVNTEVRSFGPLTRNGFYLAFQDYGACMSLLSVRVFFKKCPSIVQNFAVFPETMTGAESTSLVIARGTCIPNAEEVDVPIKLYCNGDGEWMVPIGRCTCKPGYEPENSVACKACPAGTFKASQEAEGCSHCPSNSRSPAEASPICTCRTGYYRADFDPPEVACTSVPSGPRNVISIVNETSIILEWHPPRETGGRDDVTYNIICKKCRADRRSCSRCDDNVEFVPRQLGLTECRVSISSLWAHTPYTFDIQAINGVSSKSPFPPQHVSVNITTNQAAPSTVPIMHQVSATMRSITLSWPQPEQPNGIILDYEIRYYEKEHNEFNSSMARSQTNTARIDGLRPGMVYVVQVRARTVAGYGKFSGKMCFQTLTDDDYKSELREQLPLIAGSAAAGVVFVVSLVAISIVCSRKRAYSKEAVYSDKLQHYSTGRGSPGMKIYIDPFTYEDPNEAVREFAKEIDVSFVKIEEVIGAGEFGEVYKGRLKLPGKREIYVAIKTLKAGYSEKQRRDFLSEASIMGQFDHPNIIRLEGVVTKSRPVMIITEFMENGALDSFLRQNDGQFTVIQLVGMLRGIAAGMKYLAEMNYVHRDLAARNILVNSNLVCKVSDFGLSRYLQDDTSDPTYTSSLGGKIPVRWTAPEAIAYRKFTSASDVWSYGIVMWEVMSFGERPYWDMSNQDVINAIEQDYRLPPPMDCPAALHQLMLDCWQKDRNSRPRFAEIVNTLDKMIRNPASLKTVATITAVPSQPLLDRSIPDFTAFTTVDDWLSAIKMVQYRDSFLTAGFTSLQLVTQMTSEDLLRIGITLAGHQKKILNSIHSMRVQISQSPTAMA
RQGQAYRGQRV [TSHR_Y706_A703G] showed a phosphorylation enrichment of 0.338.
In the case of YCRIMYDIFPF [INTS13_Y67], the phosphorylation enrichment is reported as 6.02.
AFSLKYEQQTQ [SYTL4_Y366] gave a phosphorylation enrichment of 0.694.
With AHARMYGVLPW [PLP1_Y207_D203H] the phosphorylation enrichment was 0.519.
Sequence FGCGMYSHLQG [LGR4_Y848_D844G_YF] has a phosphorylation enrichment of 0.879.
Work on ENELTYYCYKK [CD59_Y86_C89Y] yielded a phosphorylation enrichment of 0.794.
With KSPGEYVNIEF [IRS1_Y896] the phosphorylation enrichment was 0.653.
Work on LLAGLYRGQAL [FGFR4_Y390] yielded a phosphorylation enrichment of 0.433.
FGRTFYNQAIM [MCCC2_Y196] was tested, and the phosphorylation enrichment was 0.476.
RSRSPYSPVFR [CDK13_Y399_L403F] was tested, and the phosphorylation enrichment was 0.546.
With LLSVAYKNVVG [YWHAG_Y49] the phosphorylation enrichment was 0.645.
RHFTGYRIELQ [INSR_Y818] was tested, and the phosphorylation enrichment was 0.472.
Sequence RKNAKYLLKGE [CDH5_Y82] has a phosphorylation enrichment of 0.848.
Sequence IMITDYLPLFR [INSR_Y87_L89P] has a phosphorylation enrichment of 0.641.
TLSGIYQYNIA [FOXL2_Y81_I84N] gave a phosphorylation enrichment of 1.82.
Sequence PTTKTYFPHFD [HBA1_Y43] has a phosphorylation enrichment of 0.374.

What follows are sequences tested against EPHB2 (UniProt P29323) in the same assay as above.
Sequence of EPHB2 (P29323 whole entry, looked up): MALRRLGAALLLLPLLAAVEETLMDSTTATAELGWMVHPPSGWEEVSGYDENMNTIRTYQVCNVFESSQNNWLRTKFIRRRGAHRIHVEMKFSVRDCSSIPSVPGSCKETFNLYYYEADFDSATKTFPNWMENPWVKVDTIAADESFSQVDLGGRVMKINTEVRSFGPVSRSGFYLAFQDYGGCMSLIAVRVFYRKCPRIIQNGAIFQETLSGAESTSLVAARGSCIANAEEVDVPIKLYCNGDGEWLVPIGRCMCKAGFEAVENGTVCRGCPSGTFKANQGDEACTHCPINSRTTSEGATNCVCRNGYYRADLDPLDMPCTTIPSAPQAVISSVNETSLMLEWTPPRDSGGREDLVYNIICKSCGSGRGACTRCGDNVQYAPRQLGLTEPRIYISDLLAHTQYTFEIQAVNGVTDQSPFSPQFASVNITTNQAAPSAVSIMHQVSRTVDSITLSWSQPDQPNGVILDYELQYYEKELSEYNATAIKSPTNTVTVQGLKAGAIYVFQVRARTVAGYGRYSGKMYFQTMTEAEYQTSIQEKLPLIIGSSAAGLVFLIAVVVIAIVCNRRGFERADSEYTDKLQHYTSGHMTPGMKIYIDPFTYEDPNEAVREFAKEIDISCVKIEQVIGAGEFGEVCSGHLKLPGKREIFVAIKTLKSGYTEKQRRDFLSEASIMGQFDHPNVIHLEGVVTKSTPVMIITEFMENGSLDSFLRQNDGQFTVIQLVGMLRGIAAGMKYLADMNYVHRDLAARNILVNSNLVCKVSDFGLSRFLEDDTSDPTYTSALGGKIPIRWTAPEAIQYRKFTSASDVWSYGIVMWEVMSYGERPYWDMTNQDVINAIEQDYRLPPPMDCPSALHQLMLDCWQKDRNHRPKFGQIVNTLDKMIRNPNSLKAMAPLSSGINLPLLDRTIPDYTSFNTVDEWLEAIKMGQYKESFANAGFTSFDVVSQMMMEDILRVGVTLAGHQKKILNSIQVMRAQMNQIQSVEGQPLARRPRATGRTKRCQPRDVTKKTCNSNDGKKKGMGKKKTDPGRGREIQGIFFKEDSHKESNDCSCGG
RQGQAYRGQRV [TSHR_Y706_A703G] gave a phosphorylation enrichment of 0.339.
YCRIMYDIFPF [INTS13_Y67] was tested, and the phosphorylation enrichment was 5.07.
AFSLKYEQQTQ [SYTL4_Y366] was tested, and the phosphorylation enrichment was 0.624.
Work on AHARMYGVLPW [PLP1_Y207_D203H] yielded a phosphorylation enrichment of 0.462.
FGCGMYSHLQG [LGR4_Y848_D844G_YF] gave a phosphorylation enrichment of 0.744.
With ENELTYYCYKK [CD59_Y86_C89Y] the phosphorylation enrichment was 0.752.
KSPGEYVNIEF [IRS1_Y896] gave a phosphorylation enrichment of 0.736.
For LLAGLYRGQAL [FGFR4_Y390], the phosphorylation enrichment was 0.594.
FGRTFYNQAIM [MCCC2_Y196] was tested, and the phosphorylation enrichment was 0.529.
RSRSPYSPVFR [CDK13_Y399_L403F] showed a phosphorylation enrichment of 0.452.
LLSVAYKNVVG [YWHAG_Y49] showed a phosphorylation enrichment of 0.64.
For RHFTGYRIELQ [INSR_Y818], the phosphorylation enrichment was 0.56.
Sequence RKNAKYLLKGE [CDH5_Y82] has a phosphorylation enrichment of 0.821.
Sequence IMITDYLPLFR [INSR_Y87_L89P] has a phosphorylation enrichment of 0.651.
In the case of TLSGIYQYNIA [FOXL2_Y81_I84N], the phosphorylation enrichment is reported as 1.15.
PTTKTYFPHFD [HBA1_Y43] showed a phosphorylation enrichment of 0.396.

Each sequence was assayed against FGFR1 (UniProt P11362) in the same assay as above.
Sequence of FGFR1 (P11362 whole entry, looked up): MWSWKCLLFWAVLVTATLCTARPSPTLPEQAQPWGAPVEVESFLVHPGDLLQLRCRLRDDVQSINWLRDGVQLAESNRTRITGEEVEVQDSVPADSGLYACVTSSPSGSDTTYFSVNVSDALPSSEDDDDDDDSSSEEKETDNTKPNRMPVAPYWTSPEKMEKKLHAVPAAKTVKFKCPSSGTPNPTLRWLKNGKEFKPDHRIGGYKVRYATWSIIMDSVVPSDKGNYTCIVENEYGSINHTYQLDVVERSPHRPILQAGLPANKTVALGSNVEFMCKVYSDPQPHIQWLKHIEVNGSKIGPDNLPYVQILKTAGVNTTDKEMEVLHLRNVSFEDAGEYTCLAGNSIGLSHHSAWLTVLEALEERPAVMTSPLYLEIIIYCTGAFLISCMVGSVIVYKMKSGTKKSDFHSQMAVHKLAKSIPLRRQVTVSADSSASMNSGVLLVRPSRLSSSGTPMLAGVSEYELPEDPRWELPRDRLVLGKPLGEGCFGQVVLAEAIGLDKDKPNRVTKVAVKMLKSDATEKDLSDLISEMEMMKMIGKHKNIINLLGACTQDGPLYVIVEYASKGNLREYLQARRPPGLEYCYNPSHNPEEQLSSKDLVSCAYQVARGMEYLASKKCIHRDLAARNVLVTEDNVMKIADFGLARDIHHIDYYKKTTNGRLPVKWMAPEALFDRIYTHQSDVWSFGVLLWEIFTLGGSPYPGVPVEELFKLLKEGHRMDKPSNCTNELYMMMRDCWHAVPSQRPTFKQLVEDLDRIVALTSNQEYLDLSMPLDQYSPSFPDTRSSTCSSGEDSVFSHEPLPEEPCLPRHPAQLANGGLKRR
With RQGQAYRGQRV [TSHR_Y706_A703G] the phosphorylation enrichment was 0.452.
For YCRIMYDIFPF [INTS13_Y67], the phosphorylation enrichment was 3.47.
Work on AFSLKYEQQTQ [SYTL4_Y366] yielded a phosphorylation enrichment of 0.53.
AHARMYGVLPW [PLP1_Y207_D203H] gave a phosphorylation enrichment of 0.503.
With FGCGMYSHLQG [LGR4_Y848_D844G_YF] the phosphorylation enrichment was 0.795.
Work on ENELTYYCYKK [CD59_Y86_C89Y] yielded a phosphorylation enrichment of 1.68.
KSPGEYVNIEF [IRS1_Y896] showed a phosphorylation enrichment of 1.35.
LLAGLYRGQAL [FGFR4_Y390] was tested, and the phosphorylation enrichment was 0.459.
FGRTFYNQAIM [MCCC2_Y196] gave a phosphorylation enrichment of 0.377.
Work on RSRSPYSPVFR [CDK13_Y399_L403F] yielded a phosphorylation enrichment of 0.459.
Work on LLSVAYKNVVG [YWHAG_Y49] yielded a phosphorylation enrichment of 0.589.
Sequence RHFTGYRIELQ [INSR_Y818] has a phosphorylation enrichment of 0.531.
With RKNAKYLLKGE [CDH5_Y82] the phosphorylation enrichment was 0.712.
IMITDYLPLFR [INSR_Y87_L89P] was tested, and the phosphorylation enrichment was 0.737.
TLSGIYQYNIA [FOXL2_Y81_I84N] was tested, and the phosphorylation enrichment was 0.752.
PTTKTYFPHFD [HBA1_Y43] gave a phosphorylation enrichment of 0.595.

Each sequence was assayed against FGFR3 (UniProt P22607) in the same assay as above.
Sequence of FGFR3 (P22607 whole entry, looked up): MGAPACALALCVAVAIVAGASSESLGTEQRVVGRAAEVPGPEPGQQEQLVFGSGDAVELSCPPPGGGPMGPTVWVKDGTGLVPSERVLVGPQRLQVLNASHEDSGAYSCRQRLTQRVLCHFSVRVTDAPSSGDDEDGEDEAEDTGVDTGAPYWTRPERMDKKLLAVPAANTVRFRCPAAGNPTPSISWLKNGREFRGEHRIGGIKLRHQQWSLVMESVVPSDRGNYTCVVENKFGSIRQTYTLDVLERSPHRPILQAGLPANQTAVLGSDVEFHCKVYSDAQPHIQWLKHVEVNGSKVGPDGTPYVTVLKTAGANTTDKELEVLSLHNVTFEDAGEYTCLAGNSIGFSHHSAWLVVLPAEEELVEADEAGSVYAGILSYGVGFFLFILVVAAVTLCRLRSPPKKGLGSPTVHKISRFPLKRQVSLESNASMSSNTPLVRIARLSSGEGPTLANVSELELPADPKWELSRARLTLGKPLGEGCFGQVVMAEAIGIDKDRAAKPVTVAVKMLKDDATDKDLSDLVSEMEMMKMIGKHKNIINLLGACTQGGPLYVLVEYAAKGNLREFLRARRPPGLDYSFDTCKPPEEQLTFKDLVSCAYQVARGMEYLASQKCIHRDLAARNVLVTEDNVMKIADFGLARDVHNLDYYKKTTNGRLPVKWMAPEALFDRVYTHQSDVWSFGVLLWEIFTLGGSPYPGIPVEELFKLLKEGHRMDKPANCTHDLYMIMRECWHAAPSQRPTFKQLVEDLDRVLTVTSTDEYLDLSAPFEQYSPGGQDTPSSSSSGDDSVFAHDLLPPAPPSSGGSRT
Work on RQGQAYRGQRV [TSHR_Y706_A703G] yielded a phosphorylation enrichment of 0.447.
Work on YCRIMYDIFPF [INTS13_Y67] yielded a phosphorylation enrichment of 2.89.
For AFSLKYEQQTQ [SYTL4_Y366], the phosphorylation enrichment was 0.841.
With AHARMYGVLPW [PLP1_Y207_D203H] the phosphorylation enrichment was 0.421.
With FGCGMYSHLQG [LGR4_Y848_D844G_YF] the phosphorylation enrichment was 0.916.
Work on ENELTYYCYKK [CD59_Y86_C89Y] yielded a phosphorylation enrichment of 1.53.
KSPGEYVNIEF [IRS1_Y896] showed a phosphorylation enrichment of 1.06.
For LLAGLYRGQAL [FGFR4_Y390], the phosphorylation enrichment was 0.526.
FGRTFYNQAIM [MCCC2_Y196] gave a phosphorylation enrichment of 0.535.
RSRSPYSPVFR [CDK13_Y399_L403F] gave a phosphorylation enrichment of 0.462.
In the case of LLSVAYKNVVG [YWHAG_Y49], the phosphorylation enrichment is reported as 0.709.
RHFTGYRIELQ [INSR_Y818] was tested, and the phosphorylation enrichment was 0.661.
Sequence RKNAKYLLKGE [CDH5_Y82] has a phosphorylation enrichment of 0.545.
IMITDYLPLFR [INSR_Y87_L89P] showed a phosphorylation enrichment of 0.729.
Work on TLSGIYQYNIA [FOXL2_Y81_I84N] yielded a phosphorylation enrichment of 0.701.
Sequence PTTKTYFPHFD [HBA1_Y43] has a phosphorylation enrichment of 0.625.

The sequences below were run on Fer (mouse) in the same assay as above.
RQGQAYRGQRV [TSHR_Y706_A703G] was tested, and the phosphorylation enrichment was 0.649.
YCRIMYDIFPF [INTS13_Y67] was tested, and the phosphorylation enrichment was 2.06.
With AFSLKYEQQTQ [SYTL4_Y366] the phosphorylation enrichment was 0.719.
AHARMYGVLPW [PLP1_Y207_D203H] showed a phosphorylation enrichment of 0.402.
FGCGMYSHLQG [LGR4_Y848_D844G_YF] showed a phosphorylation enrichment of 0.745.
Work on ENELTYYCYKK [CD59_Y86_C89Y] yielded a phosphorylation enrichment of 0.685.
KSPGEYVNIEF [IRS1_Y896] gave a phosphorylation enrichment of 0.505.
Work on LLAGLYRGQAL [FGFR4_Y390] yielded a phosphorylation enrichment of 0.683.
FGRTFYNQAIM [MCCC2_Y196] was tested, and the phosphorylation enrichment was 0.411.
With RSRSPYSPVFR [CDK13_Y399_L403F] the phosphorylation enrichment was 0.403.
LLSVAYKNVVG [YWHAG_Y49] showed a phosphorylation enrichment of 0.551.
RHFTGYRIELQ [INSR_Y818] was tested, and the phosphorylation enrichment was 0.544.
For RKNAKYLLKGE [CDH5_Y82], the phosphorylation enrichment was 0.666.
Sequence IMITDYLPLFR [INSR_Y87_L89P] has a phosphorylation enrichment of 0.376.
With TLSGIYQYNIA [FOXL2_Y81_I84N] the phosphorylation enrichment was 13.1.
Sequence PTTKTYFPHFD [HBA1_Y43] has a phosphorylation enrichment of 0.479.

These sequences were tested against Fes (UniProt P07332) in the same assay as above.
Sequence of Fes (P07332 whole entry, looked up): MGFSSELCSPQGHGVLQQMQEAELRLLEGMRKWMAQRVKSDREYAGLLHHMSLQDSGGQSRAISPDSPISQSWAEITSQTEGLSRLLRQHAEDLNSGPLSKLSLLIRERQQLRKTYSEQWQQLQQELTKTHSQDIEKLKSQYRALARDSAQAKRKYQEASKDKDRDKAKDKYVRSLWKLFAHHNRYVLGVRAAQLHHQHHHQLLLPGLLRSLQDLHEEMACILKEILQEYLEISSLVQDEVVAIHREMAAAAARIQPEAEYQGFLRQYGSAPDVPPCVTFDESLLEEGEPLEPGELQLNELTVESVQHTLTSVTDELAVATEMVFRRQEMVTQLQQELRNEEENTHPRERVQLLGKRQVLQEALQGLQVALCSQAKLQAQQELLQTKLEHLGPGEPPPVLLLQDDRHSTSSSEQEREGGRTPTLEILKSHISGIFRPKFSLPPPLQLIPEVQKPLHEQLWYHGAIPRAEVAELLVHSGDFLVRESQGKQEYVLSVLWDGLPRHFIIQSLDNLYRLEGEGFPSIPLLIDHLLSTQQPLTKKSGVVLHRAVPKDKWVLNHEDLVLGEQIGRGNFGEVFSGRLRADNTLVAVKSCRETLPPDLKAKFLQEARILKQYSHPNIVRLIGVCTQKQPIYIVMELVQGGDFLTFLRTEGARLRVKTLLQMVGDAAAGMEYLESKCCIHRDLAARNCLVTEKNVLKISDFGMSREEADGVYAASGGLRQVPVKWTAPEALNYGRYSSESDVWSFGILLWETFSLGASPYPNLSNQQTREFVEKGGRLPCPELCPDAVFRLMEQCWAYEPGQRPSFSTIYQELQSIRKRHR
Sequence RQGQAYRGQRV [TSHR_Y706_A703G] has a phosphorylation enrichment of 0.805.
With YCRIMYDIFPF [INTS13_Y67] the phosphorylation enrichment was 1.48.
Work on AFSLKYEQQTQ [SYTL4_Y366] yielded a phosphorylation enrichment of 1.21.
For AHARMYGVLPW [PLP1_Y207_D203H], the phosphorylation enrichment was 0.617.
For FGCGMYSHLQG [LGR4_Y848_D844G_YF], the phosphorylation enrichment was 1.09.
ENELTYYCYKK [CD59_Y86_C89Y] gave a phosphorylation enrichment of 1.69.
For KSPGEYVNIEF [IRS1_Y896], the phosphorylation enrichment was 0.812.
For LLAGLYRGQAL [FGFR4_Y390], the phosphorylation enrichment was 0.833.
With FGRTFYNQAIM [MCCC2_Y196] the phosphorylation enrichment was 1.04.
Sequence RSRSPYSPVFR [CDK13_Y399_L403F] has a phosphorylation enrichment of 0.77.
In the case of LLSVAYKNVVG [YWHAG_Y49], the phosphorylation enrichment is reported as 0.935.
RHFTGYRIELQ [INSR_Y818] showed a phosphorylation enrichment of 1.37.
With RKNAKYLLKGE [CDH5_Y82] the phosphorylation enrichment was 1.37.
Sequence IMITDYLPLFR [INSR_Y87_L89P] has a phosphorylation enrichment of 0.985.
TLSGIYQYNIA [FOXL2_Y81_I84N] was tested, and the phosphorylation enrichment was 0.963.
In the case of PTTKTYFPHFD [HBA1_Y43], the phosphorylation enrichment is reported as 0.929.

Each sequence was assayed against Fyn (UniProt P06241) in the same assay as above.
Sequence of Fyn (P06241 whole entry, looked up): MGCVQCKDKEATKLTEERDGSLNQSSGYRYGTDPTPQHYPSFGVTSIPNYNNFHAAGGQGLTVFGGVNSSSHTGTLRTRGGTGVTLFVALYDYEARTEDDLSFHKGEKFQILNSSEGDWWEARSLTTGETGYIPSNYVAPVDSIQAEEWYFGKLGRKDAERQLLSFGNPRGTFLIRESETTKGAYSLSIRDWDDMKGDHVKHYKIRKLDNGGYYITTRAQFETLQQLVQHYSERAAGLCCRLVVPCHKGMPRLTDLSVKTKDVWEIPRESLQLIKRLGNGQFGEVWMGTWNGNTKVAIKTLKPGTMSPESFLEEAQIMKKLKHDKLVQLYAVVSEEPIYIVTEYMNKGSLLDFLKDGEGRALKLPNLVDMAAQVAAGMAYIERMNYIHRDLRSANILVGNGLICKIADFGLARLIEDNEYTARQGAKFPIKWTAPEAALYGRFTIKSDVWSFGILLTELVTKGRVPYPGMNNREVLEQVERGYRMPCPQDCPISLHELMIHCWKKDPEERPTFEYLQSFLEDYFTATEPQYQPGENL
For RQGQAYRGQRV [TSHR_Y706_A703G], the phosphorylation enrichment was 0.509.
With YCRIMYDIFPF [INTS13_Y67] the phosphorylation enrichment was 2.55.
For AFSLKYEQQTQ [SYTL4_Y366], the phosphorylation enrichment was 0.437.
AHARMYGVLPW [PLP1_Y207_D203H] gave a phosphorylation enrichment of 2.35.
FGCGMYSHLQG [LGR4_Y848_D844G_YF] showed a phosphorylation enrichment of 0.713.
In the case of ENELTYYCYKK [CD59_Y86_C89Y], the phosphorylation enrichment is reported as 4.74.
Work on KSPGEYVNIEF [IRS1_Y896] yielded a phosphorylation enrichment of 0.49.
For LLAGLYRGQAL [FGFR4_Y390], the phosphorylation enrichment was 0.494.
For FGRTFYNQAIM [MCCC2_Y196], the phosphorylation enrichment was 0.407.
With RSRSPYSPVFR [CDK13_Y399_L403F] the phosphorylation enrichment was 0.6.
LLSVAYKNVVG [YWHAG_Y49] was tested, and the phosphorylation enrichment was 0.585.
With RHFTGYRIELQ [INSR_Y818] the phosphorylation enrichment was 0.604.
In the case of RKNAKYLLKGE [CDH5_Y82], the phosphorylation enrichment is reported as 0.64.
In the case of IMITDYLPLFR [INSR_Y87_L89P], the phosphorylation enrichment is reported as 0.473.
TLSGIYQYNIA [FOXL2_Y81_I84N] gave a phosphorylation enrichment of 4.61.
Work on PTTKTYFPHFD [HBA1_Y43] yielded a phosphorylation enrichment of 0.545.
